The nanobody polyreactivity screen of Harvey et al. (2022)

Experiment: yeast display, Sf9 membrane polyspecificity reagent, FACS + sequencing; frameworks hold sequencing errors
Method in brief: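 Genes from sorted yeast were amplified by colony PCR, read by MiSeq 2 × 250 sequencing and filtered on CDR length. These cells carried a synthetic nanobody library in Saccharomyces cerevisiae BJ5465 and were sorted by FACS into low and high (top ~1%) gates on anti-HA and streptavidin fluorescence. Polyreactivity is labelled according to the gate of origin.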

Sequence	polyreactivity (PSR sort gate)
QVQLQESGGGLVQAGGSLRLSCAASGSIFHLHIMCWYRQAPGKERESVAAISYGTSTYYADSVKGRFTICRDNAKNTLYLQMNSPKPDDTAVYYCAALFLVSKHHHYWGEGTQVTVSS	low polyreactivity
QVQLQESGGGLVQAGGSLRLSCAASGSIFHLHIMCWYRQAPGKERESVAAISYGTSTYYADSVKGRFTICRDNAKNTVYLKMNSPKPDDTAVYYCAALFLVSKHHHYWGEGTQVTVSS	low polyreactivity
QVQLQESGGGLVQAGGSLRLSCAASGSIFHLHIMCWYSQAPGKERESVAAISYGTSTYFADSVKGRFTICRDNAKNTVYLQMNSPKPYDTAVYYCAALFLVSKHHHYWGEGTQVTVSS	low polyreactivity
QVQLQESGGGLVQAGGSLRLSCAASGSISELRPMGWYRQAPGKERELVAGISTGGSTNYADSVKGRFTISRDNAKNTVYLQMNSLKPEDTAVYYCAAASYGEGTYDYWGQGTQVTVRS	high polyreactivity
QVQLQESGGGLVQAGGSLRLSCAASGSISHYIFMGWYRQAPGKEREFVAGIGYGGTTNYADSVKGRFTISRDNAKNTVYLQMNSLKPEDTAMYYCAAREATEFYLYYWGQGTQVTVRS	low polyreactivity
QVQLQESGGGLVQAGGSLRLSCAASGSISSPQFMGWYRQAPGIERELVATIANGGITYYADGVKGRFTISRDNAKNTVYLQMNSLKPEDTAVYYCNARSQGWYNTFYYWGQGTQVTVSS	low polyreactivity
QVQLQESGGGLVQAGGSLRLSCAASGTIFRFRYMGWHRQAPGKERELVAGINGGTTTYYADSVIGRFTISRDNAIKTVYLQMNSLKPDDTAVYNCAAGASRLTYYDYWGQGTQVTVSS	low polyreactivity
QVQLQESGGGLVQAGGSLRLSCAASGTIFRPATKGWYRQAPGKECEFVASITIGTITNYADSVKGRFTISRDNAKNTVYLQMNSLKPEDTAVYYCAVYGTWEVDLYYWGQGTQVTVSS	high polyreactivity
QVQLQESGGGLVQAGGSLRLSCAASGTISDSGLMGWYRQAPGKERELVAGISSGGITNYADSVKGRFTISRDNAKNSVDLQMNSLKPEDTAVYWGRGTQVTVSS	low polyreactivity
QVQLQESGGGLVQAGGSLRLSCAASGTISPLPAMGWYRQAPGKEPEFVAGIDTGAITNYADSVKGRFTISRDNAKNTVYLQMNSLKPEDTAVYYCAVFPAAYDYYERYYTYWGQGTQVTVIS	low polyreactivity
QVQLQESGGGLVQAGGSLRLSCAASGTISTIEPMGWYRQAPGKERELVACIGAGTITNYADSVKGRFTISRDNDTVYLQMNSLKPEDTAVYYCNADGWYALYEWLAVSGYYWGQGTQVTVSS	low polyreactivity
QVQLQESGGGLVQAGGSLRLSCAASGYISLAQTIGWYRQAPGKEREFVASIALGSSTYYTDSVKGSFTISRDNAKTTVYLQMNSLKPEDTAVYYCAARVGASYAHDYWGQGTQVAVSS	low polyreactivity
QVQLQESGGGLVQAGGSLRLSCAASGYISSWYPMGSYRQAPGKEREFVATIAPGATTYYADSVKGRFTISRDYAKNTVYLQMNSLKPEDTAVYYCAAGPENNDFYSYGGQGTQVTVSS	low polyreactivity
QVQLQESGGGLVQAGGSLRLSCAASGYISSWYPMGWYRQAPGKEREFVATIAPGATPYYADSVKGRFTISRDYAKNTVYLQMNSLKPEDTAVYYCAAGPENNDFYSYWGQGTQVTVSS	low polyreactivity
QVQLQESGGGLVQAGGSLRLSCAASGYISSWYPMGWYRQAPGKEREFVATLAPGATTYYADSVKGRFTISRDYAKNTVYLQMIRLKPEDTAVYYFAAGPENNDFYSFWGQGSQVTVSS	low polyreactivity
QVQLQESGGGLVQAGGSLRLSCAASGYISYCVGMGWYRQAPGKEREFVASIAVGSNTYYADSVKGRFTISRYNAKISVYLQRNSLKPEDTAVYYCSVEDSWTYRFDYWGQGTQVTVSS	high polyreactivity
QVQLQESGGGLVQAGGSLRLSCAASGYISYFVGMGWYRQAPGKEREFVASIADGSNTYYADSVKGRFTISRDNAKNTVYLQRNSLKPEDTAVYYCAVEDSWTYRFDYWGQGTQVTVSS	high polyreactivity
QVQLQESGGGLVQAGGSLRLSCAASGYIYSWYPMGWYLQAPGKEREFVATIAPGATTYYADSVKGRFTISRDYAKNTVYLQMNSLKTEDTAVYYCAAGAENNDFYSYWGHGTQVTVSS	low polyreactivity
QVQLQESGGGLVQAGGSLRLSCAESGTIFGWDRMGRYRQAPGKERELVATIDNRGSTNYADSVKGRFTISRDNAKNTVYPQMNSLKPDDTAVYYCAVVGPTPQYHLYWGQGTQVTVSS	high polyreactivity
QVQLQESGGGLVQAGGSLRLSCAESGYISHAVEMGWYRQAPGKVHELVASISNGGSTNYADSVKGRFTISRDNAKNTVYLQMNSLKSEDTAVYYCAAWTGQVDIHSYWGQGTQVSVSS	low polyreactivity
QVQLQESGGGLVQAGGSLRLSCAQSGTICGWDRMGRYRQAPGKERELVATIDNRGSTNYADSVKGRFTISRDNANNTVYPQKISLKPDDTAVDYCAVVGPTPQYHLYWGQGTQVTVCS	high polyreactivity

Sequence	polyreactivity (PSR sort gate)
QVQLQESGGGLVQAGGSLRLSCSASGYISHADEMGWYRQAPGKEHELVASISNGGSTNYADSVKGRFTISRDNAKNTVYLQMNSLKSEDTAVYYCAAWTGQVDIHYYWGQGTQVTVSS	low polyreactivity
QVQLQESGGGLVQAGGSLRLTCAASGSIYDDTYMGCYRQAPGKERELVATIDSGSTTNYADSVKGRITIRRDNAKNTVYLQMNSLKPEDTAVYFCGAADSHIDYFDYWGQGTQVTVSS	low polyreactivity
QVQLQESGGGLVQAGGSLRPRCAAGGTIFVSVNMGWYRHAPGEEREFVASITQGATTNYADSLIGRFTISRDNAKNTVYLQMNCQNQEDTAVYYCAVHESGGITFTYWGQGTQVTVSS	high polyreactivity
QVQLQESGGGLVQAGGSLRPSCAASGNIFVPFKMGWYRLAPGKERELVASINRGSTTNYADSVKGRFTISRDNAKNTVYLQMISLKPEDTAVYYCAAIAYPDIPTYLDYDSDYFYWDQGTQVTVSS	high polyreactivity
QVQLQESGGGLVQAGGSLRPSCAASGSISDGVPMGWYRQAPGEQRELVATTVLGATTNYADSVKGRFTISRGNAKNTVYLLMNSLKPEETAVYYCAARLRYDKGFSYWGQGTQVTVSS	low polyreactivity
QVQLQESGGGLVQAGGSLRQSCTASGTIYYTSAMGWYRHAPGKDREFVAAIASGSSTNYADSVKGRFTISRDNAKNTVYLKMNSLKPEVTAVYYCAASERVRNIYQYWGQGTQVSVSS	high polyreactivity
QVQLQESGGGLVQAGGSLRQSYAASGYIFPSLAKGWYRQAPGKEREFVAAIGRGSTNNYADSVKGRFTISRDNAKKTAYQQMNSLKPEDTAVYYCAAAASPLTRHLYWGQGTQVTVSS	low polyreactivity
QVQLQESGGGLVQAGGSLRRSCAASGSIFYHWAMGWYRQTPGKERELVASITSGGNTNYADSVKGRFTISRDNAKNTVYLPMDRLKPEDTAVYYCAADGYYGAWDLEYYYWGQGTQVTVSS	low polyreactivity
QVQLQESGGGLVQAGGSMRLSCAASGSISELRPMGWYRKAPGKERELVAGISTGGSTNYADSVKGRFTISRDNAKNTVYLQMNSQKPEDTAVYYCAAASYGEGTYDYWGQGTQVTVRS	high polyreactivity
QVQLQESGGGLVQAGGSMRLSCAASGSISELRPMGWYRQAPGKERELVAGISTGGSTNYADSVKGRFTISRDNAKNTVYLQMNSLKPEDTAVYYCAAASYGEGTYDYWGQGTQVTVRS	high polyreactivity
QVQLQESGGGLVQAGGSMRLSCAASGSISELSPMGWYRQAPGKERELVAGISTGGSTNYADSVKGRFTISRDNAKNTVYLQMNSLKPEDTAVYYCAAASYGEGSYDYWGQGTQVTVRS	high polyreactivity
QVQLQESGGGLVQAGGSMRLSCAASGYFSNYYSLGLYRQAPGKERELVAGIGTGTSTYYADSVKGRFTISRDNAKNTVYQQMNSLKPEDTAVYYCAAPLDTSSRIFDYWGQGTQVTVSS	low polyreactivity
QVQLQESGGGLVQAGGTLRLSCAASGSFSADEDMGWYRQEQGKEREFVAGISVGGNTNYADSVKGRFTISRENAKNTVYLQINSLKPEDTAVYYCAVLQDVYDALDYWAQGTQVTVSS	high polyreactivity
QVQLQESGGGLVQAGRSLRLSCEASGSISILQSMGWYRQAPGKEGELVAGINWGATTYYADSVKVRLTTSRDYAKNTVYLEMNSLKPEETAVYYCAVPTYYTYPLLYWGPGTQVTVSS	low polyreactivity
QVQLQESGGGLVQAGVSLRLSCAASGNINDADIMGCYRQAPGKERELVTSITDGGSTNYADSVKGRFTISRDNAKNTVYLQMNSLKPEDTAVYYCAAIAYPVIPTSFDYNSDYSYWGQGTQVTVSS	low polyreactivity
QVQLQESGGGLVQARGSLRLSCSASGNISVNGFMGWYRQAPGNVRELVASIGIGGTTYYADSVKGRFSISRDNAKNTVYLQMNSLKPEDTSVYYCAASYLYYAYSYWYQGTQVTVSS	low polyreactivity
QVQLQESGGGLVQEGGSLRLRCAASRNISGSSDLGWYHQAPGKEREFVASITSGGTTYYADSVKGRFTISRDNAKNTVYLQMNSLKPEDTAVYYCAVGDPADAEFGYWGQGTQVTVSS	low polyreactivity
QVQLQESGGGLVQEGGSLRLTCAASGNISPPADMGWYRQAPGKERELVASIGTGGTTNYADSVKGRFTISRDNAKNTVYLQMNSLKPDDTAVYYCAAVRYEYNPYDYWGQGTQVSVSS	low polyreactivity
QVQLQESGGGLVQGGGSLRLSCAASGSNYRSWYMGWYRQAPGKERELVASITEGATTNYAYSVKAALPLAAITRNSVYRQMDSMKPEDTAVYYRGASFGSTYDLVYWGQGTQVTVSS	high polyreactivity
QVQLQESGGGLVQVGGSQRLSCAASGNIFYNYAMGWYRHAHGKEREFDATINHGTSINYADSVKGRFTISRDNAKNTVYLQMNSLKPEDTAVYYCAADLSWTDNLFYWGQGTQVTVSS	low polyreactivity
